For assay [1], the target named is T1, wild-type human CCR7 (pcDNA3.1 Neo-hCCR7, 20100121357) (human, UniProt P32248 25-378).
T1 construct: Expressed on transfected 293T, CHO AM1/D or HEK293T cells; also called huCCR7; CCR7 receptor
T1 sequence: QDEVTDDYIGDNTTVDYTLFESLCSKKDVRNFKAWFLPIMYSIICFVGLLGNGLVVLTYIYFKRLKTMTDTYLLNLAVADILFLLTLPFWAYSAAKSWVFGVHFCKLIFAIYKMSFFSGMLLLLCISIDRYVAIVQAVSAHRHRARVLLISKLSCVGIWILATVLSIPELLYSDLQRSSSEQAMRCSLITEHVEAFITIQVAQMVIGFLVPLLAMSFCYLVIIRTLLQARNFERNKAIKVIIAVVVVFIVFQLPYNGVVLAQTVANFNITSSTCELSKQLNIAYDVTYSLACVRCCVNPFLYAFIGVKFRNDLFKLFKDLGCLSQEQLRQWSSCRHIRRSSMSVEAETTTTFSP
Description: hybridoma screening on cells expressing human CCR7.

Assay [2] deals with T1, wild-type human CCR7 (pcDNA3.1 …). Kind of assay: flow cytometry on transfected 293T cells, PE secondary antibody, geo mean.

B1: antibody 6B4.1 (antibody, V domains shown)
VH: QVQLVESGGGVVQPGRSLRLSCAASGFTFSSYGMHWVRQAPGKGLEWVAVIWYDGSKKYYADSVKGRFTISRDNSKNTLYLQMNRLRAEDTAVYYCARDGGIAVFLQDNWFDPWGQGTLVTVSS
VL: SYELTQPPSVSVSPGQRARITCSGDKLGDKYASWYQQKPGQSPLLVIYQDSKRPSGIPERFSGSNSGNTATLTISGTQAMDEADYYCQAWGSSTVIFGGGTKLTVLG
notes: Human antibody from XenoMouse hybridoma; Light = 2 and heavy = 42 is inferred from the order of the listing (light chains first)
Consider B1, for which the binding result in assay [1] is recorded as “binds”.

B2: antibody 6B5.1 (antibody, human IgG2, lambda, V domains shown)
VH: QVQLVESGGGVVQPGRSLRLSCAASGFTFRSYGMHWVRQAPGKGLEWVAVIWYDGSKKYYADSVKGRFTISRDNSKNTLYLQMNRLRAEDTAVYYCARDGGIAVFLEDNWFDPWGQGTLVTVSS
VL: SYELTQPPSVSVSPGQRASITCSGDKLGDKYASWYQQKPGQSPLLVIYQDGKRPSGIPERFSGSNSGNTATLTISGTQAMDEADYYCQAWGSSTVIFGGGTKLTVLG
notes: Human antibody from XenoMouse hybridoma; Light = 18 and heavy = 50 is inferred from the order of the listing
As to B2, the binding result in assay [2] was “binds”.

For the origin of these results see patent US20170342155A1 (Amgen, published 2017).
